Reference: patent US20220267451A1

Target: recombinant IGF-1R extracellular domain (ECD) (UniProt P08069)
Assay: SPR; antibody captured by immobilized anti-Fc, IGF-1R-ECD as analyte, global fit to single site model

Chain of teprotumumab (antibody) (VH): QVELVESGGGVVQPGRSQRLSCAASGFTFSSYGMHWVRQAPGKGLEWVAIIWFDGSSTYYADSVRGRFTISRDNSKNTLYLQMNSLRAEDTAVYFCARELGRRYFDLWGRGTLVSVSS
Chain of teprotumumab (antibody) (VL): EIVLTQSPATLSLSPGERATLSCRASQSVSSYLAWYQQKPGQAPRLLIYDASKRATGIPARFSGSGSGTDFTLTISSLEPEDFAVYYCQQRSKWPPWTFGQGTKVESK

| Molecule | Kd | koff | kon |
| --- | --- | --- | --- |
| teprotumumab (antibody) | 2.2 nM | 0.00039 s⁻¹ | 180000 M⁻¹ s⁻¹ |
| VRDN-1100 (antibody, V domains shown) VH: QVQLVQSGAEVVKPGASVKLSCKASGYTFTSYWMHWVKQRPGQGLEWIGEINPSNGRTNYNQKFQGKATLTVDKSSSTAYMQLSSLTSEDSAVYYFARGRPDYYGSSKWYFDVWGQGTTVTVSS VL: DVVMTQTPLSLPVSLGDPASISCRSSQSIVHSNVNTYLEWYLQKPGQSPRLLIYKVSNRFSGVPDRFSGSGAGTDFTLRISRVEAEDLGIYYCFQGSHVPPTFGGGTKLEIKR | 0.57 nM | 5.1e-05 s⁻¹ | 88000 M⁻¹ s⁻¹ |
